Data from US20220220212A1 (RESEARCH FOUNDATION FOR THE STATE UNIVERSITY OF NEW YORK, published 2022).

T1: ECL2 domain of the CCR2 chemokine receptor
T1 construct: also called CCR2 ECL2; 2nd extracellular loop of CCR2
T1 peptide: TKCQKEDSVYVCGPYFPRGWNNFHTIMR

T2: biotinylated N-terminal domain CCR2 peptide (murine, biotinylated (position not given))
T2 construct: Bought from ABclonal; also called CCR2 N-terminal domain; CCR2 N-terminus
T2 peptide: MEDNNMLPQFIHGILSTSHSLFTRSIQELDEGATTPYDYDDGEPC

B1: ECL2-scFv (scFv)
scFv: DYKDDDDKLQSVLTQPPSASGTPGQRVTISCSGSSSNIGSHTVNWYQQLPGTAPKLLIYRNNQRPSGVPDRFSGSKSGTSASLAISGLRSEDEADYYCAAWDDSLSGVVFGGGTKLTVLGEGKSSGSGSESKASQVTLKESGAEVKKPGASVKVSCKASGYTFTNFYIHWVRRAPGQGLEWMGIINPSDGRTTYAQKFQGRVTMTRDTSTSTLYMELTSLRSEDTAVYYCGRGGHYSNYFGQPSTWGQGTLVTVSSVEAS
notes: the construct as expressed is not described; also called 4h-scFv
B2: phage clone 13F (scFv)
scFv: LQAVLTQPSSLSASPGASASLTCILRSDFSVVTQRVYWYQQKPGSPPRYLLRYNSDSDKRLGSGVPSRFSGSKDVSANAASLLISGLQSDDEADYYCVIWHNSAVVFGGGTKLTVLGEGKSSGSGSESKASEVQLLESGAEVKKPGESLKISCKGSGYSFTSYWIGWVRQMPGKGLEWMGIIYPGDSDTRYSPSFQGQVTISADKSISTAYLQWSSLKASDTAMYYCARRPQYYDILTGWHAGWFDPWGQGTLVTVSS
notes: also called 13F-scFv
B3: phage clone 26B (scFv)
scFv: LQSVLTQPPSASGTPGQRVTISCSGSSSNIGSNYVYWYQQLPGTAPKLLIYRNNQRPSGVPDRFSGSKSGTSASLAISGLQSEDEADYYCAAWDDSLNGVVFGGGTELTVLGEGKSSGSGSESKASQVTLKESGAEVKKPGASVKVSCKASGYTFTNFYIHWVRRAPGQGLEWMGIINPSDGRTTYAQKFQGRVTMTRDTSTSTLYMELTSLRSEDTAVYYCGRGGHYSNYFGQPSTWGQGTLVTVSS
notes: also called 26B-scFv
B4: phage clone 25B (scFv)
scFv: LQSVLTQPPSVSGAPGQKVTISCSGSSSNIGNNYVSWYQQLPGTAPKLLIYGNNKRPSGIPDRFSGSKSGTSATLGITGLQTGDEADYYCATWDDSLSAVVFGGGTKLTVLGEGKSSGSGSESKASQVTLKESGAEVKKPGASVKVSCKASGYTFTNFYIHWVRRAPGQGLEWMGIINPSDGRTTYAQKFQGRVTMTRDTSTSTLYMELTSLRSEDTAVYYCGRGGHYSNYFGQPSTWGQGTLVTVSS
notes: also called 25B-scFv

What was measured:
[1] = target: T1, ECL2 domain of the CCR2 chemokine …; test: binding assay of FIG. 16A,B on the ECL2 domain (method not given)
[2] = target: T2, biotinylated N-terminal domain CCR2 …; test: phage ELISA on the N-terminal peptide
Experimental: Nunc MaxiSorp 96-well plates were coated with NeutrAvidin at 5 μg/mL and incubated overnight at 4° C. The plate was thoroughly washed with 0.1% PBS-Tween (PBST), and 5 μg/mL biotinylated N-terminal domain CCR2 peptide ([…] (SEQ ID NO:58); ABclonal, Woburn, Mass.) added and incubated for 1 h at room temperature. The wells were washed with 0.1% PBST and then blocked with casein blocking buffer for 1 h at room temperature. The wells were washed with 0.1% PBST followed by incubation of serially diluted scFv for 1 h at room temperature before being washed five times with 0.1% PBST. Washes were followed by the addition of 100 uL of the respective horse-radish peroxidase (HRP)-linked monoclonal antibody (mAb) for 1 h at room temperature with rocking. An anti-M13 mAb was used to detect phages (#27-9421-01, GE healthcare, Chicago, Ill.) and an anti-flag mAb was used to detect scFv (#A8592, Sigma Aldrich, St. Louis, Mo.). The wells were washed with 0.1% PBST followed by the addition of TMB-ELISA substrate. After 10 min incubation, 2 M H₂SO₄ was added to stop the reaction. The absorbance was measured at 450 nm with a FilterMax F3 & F5 multi-mode microplate reader (Molecular Devices, Sunnyvale, Calif.). A 1:1 binding ratio Hill model was used to fit the binding interaction data.

| Binder | Kd [1] | binding result [2] |
| --- | --- | --- |
| B1 | 5.3 nM | – |
| B2 | – | binds |
| B3 | – | binds |
| B4 | – | binds |
